{"source": "patent US20250339501A1", "about": "“COMPOSITIONS AND METHODS FOR TREATING METABOLIC DISEASE” (The Regents of the University of California, priority 2021, published 2025)", "molecules": {"B1": {"name": "tDj1: truncated mouse Dj1 comprising only the PfpI domain, residues 32-173 per b12, SEQ ID NO: 3 (GenScript) (protein, listed as Mus musculus)", "chain": "KVTVAGLAGKDPVQCSRDVMICPDTSLEDAKTQGPYDVVVLPGGNLGAQNLSESPMVKEILKEQESRKGLIAAICAGPTALLAHEVGFGCKVTTHPLAKDKMMNGSHYSYSESRVEKDGLILTSRGPGTSFEFALAIVE"}}, "key": {"C2C12 myotubes": {"test_system": "C2C12 myotubes", "experiment": "Dj1 release from muscle cells into culture medium", "format": "cell-based, mouse", "conditions": "for protein level of Dj1 in the media: C2C12 myotubes with or without CCCP, Tg; for muscle cell release of Dj1: in vitro (C2C12 myotubes) and ex vivo muscle", "experimental": "Seeded cells were cultured in 6-well plates for 24 hours prior to transfection. Transfections were performed using Lipofectamine 2000 and PLUS reagent according to manufacturer instructions (Invitrogen, Carlsbad, CA). Human HepG2 cells were cultured in DMEM/low media containing 10% fetal bovine serum with penicillin/streptomycin. Mouse AML12 cells were maintained in DMEM/F12, ITS supplement (Gibco, USA), 40 ng/ml dexamethasone, and 10% fetal bovine serum with penicillin/streptomycin.\nAn adenovirus encoding mouse Dj1 was generated using the ViraPower Adenoviral Expression System (Invitrogen) according to manufacturer instructions. […] Entry clones were obtained by recombination of the purified DNA fragment with the pDONR221 vector using Gateway BP clonase II. Mouse Dj1 insert was transferred from the entry clones into the pAd/CMV/V5-DEST vector (Invitrogen) using the Gateway LR Clonase II enzyme mix. The recombinant adenoviral purified plasmid was used to generate adenoviral particles according to the manufacturer's instructions (Invitrogen). Adenoviral titer was determined using the AdenoX Rapid Titer Kit (Clontech).\n(§1) Mouse tissue and cell samples were pulverized in liquid nitrogen and homogenized in RIPA lysis buffer containing complete EDTA-Free protease (Roche) and Phosphatase Inhibitor Cocktail 2 (Sigma-Aldrich, St. Louis, MO). All lysates were centrifuged, clarified, and resolved by SDS-PAGE. […] Densitometric analyses were performed using BioRad Quantity One image software (Bio-Rad, Hercules, CA).\n(§2) Mouse serum Dj1 and CK were measured by mouse Park7/DJ-1 DuoSet ELISA (DY8136, R&D systems) and mouse CKMB/Creatine Kinase MB ELISA Kit (LS-F5745, LSBio) respectively. Mouse Serum AST and ALT were measured by AST activity assay kit (Sigma, MAK055) and ALT activity assay kit (Sigma, MAK052) respectively.\nStrenuous exercise increases the endoplasmic reticulum (ER) stress, which at an excessive level can lead to muscle damage (12). […] To determine the mechanisms that drive skeletal muscle releases of Dj1, ER stress markers were examined in skeletal muscles of the three different mouse models described above. […] To further validate muscle cells release of Dj1, in vitro studies were assessed.\n(§3) Extracellular vesicles are cell-derived membranous structures including exosomes and microvesicles bodies, which are enriched with proteins, lipids, DNA, and RNA (14). To examine whether Dj1 is released through the extracellular vesicle system, Dj1 levels were determined in the culture media of C2C12 myotubes that were treated with or without CCCP, Tg, exosome generation inhibitor GW4869, or exocytosis inhibitor Exo1. […] To visualize the release of Dj1 from muscle cells, time-lapse imaging was performed on C2C12 myocytes transfected with Dj1-GFP. […] To further determine which types of extracellular vesicles were enriched with Dj1, microvesicle bodies (MVBs) and exosomes from C2C12 culture media and CTX-treated mouse plasma were separated by differential centrifugation."}, "C2C12 myocytes": {"test_system": "C2C12 myocytes", "experiment": "Time-lapse imaging of Dj1-GFP transfected C2C12 myocytes", "format": "cell-based, mouse", "experimental": "Before image analysis, raw .czi files were automatically processed into deconvoluted Airyscan images using Zen software. Time-lapse images were acquired at approximately 1 frame/second.\nas §3"}, "cleaved caspase 3": {"test_system": "cleaved caspase 3", "conditions": "C2C12 myocytes", "experimental": "as §1"}, "C57BL/6J mice": {"test_system": "C57BL/6J mice", "experiment": "Plasma Dj1 after intramuscular CTX injection", "format": "in vivo, mouse", "conditions": "2 days post intramuscular administration", "experimental": "as §2\nCardiotoxin (CTX) induces skeletal muscle injury and regeneration. To further validate the effect of muscle injury on circulating Dj1, C57BL/6J mice were injected intramuscularly with CTX, and plasma Dj1 levels were measured 2 days post-administration."}, "NASH diet-fed mice": {"test_system": "NASH diet-fed mice", "experiment": "tDj1 administration in NASH diet-fed mice", "description": "Animals were weaned 21 days after birth and had free access to food and water and were housed on 12 h light-dark cycle. C57BL/6J males were introduced to a normal diet (NC, Research Diets D15100601) or high-fat diet (HFD, Research Diets D12331), and maintained on a diet for the indicated time. […] NASH model mice were fed for up to 28 weeks with the NASH diet (Envigo, TD.120528) and 42% fructose (Sigma, F0127) in the water (1,2). […] Mice were raised in microisolator cages with a 12 h: 12 h light: dark cycle. All procedures were performed in accordance with the Guide for Care and Use of Laboratory Animals of the National Institutes of Health, and were approved by the Animal Subjects Committee of the University of California, Los Angeles."}, "AML12 cells": {"test_system": "AML12 cells", "experiment": "TG and NEFA content in palmitate acid-treated AML12 cells", "format": "cell-based, mouse", "experimental": "Mouse myoblast cells (C2C12) were maintained in high glucose DMEM/high, 10% fetal bovine serum with penicillin/streptomycin. pRK5-Dj1-HA plasmid was purchased from Addgene (#29396). Seeded cells were cultured in 6-well plates for 24 hours prior to transfection. Transfections were performed using Lipofectamine 2000 and PLUS reagent according to manufacturer instructions (Invitrogen, Carlsbad, CA). Human HepG2 cells were cultured in DMEM/low media containing 10% fetal bovine serum with penicillin/streptomycin. Mouse AML12 cells were maintained in DMEM/F12, ITS supplement (Gibco, USA), 40 ng/ml dexamethasone, and 10% fetal bovine serum with penicillin/streptomycin. For in vitro experiments, HepG2 cells were treated with or without recombinant human Dj1 protein (Novus, NBC1-18334) in serum-free media containing 25 mM glucose, 200 μM palmitic acid, and 0.25% bovine serum albumin for an indicated time.\n(§4) Dj1 is a highly conserved protein that is ubiquitously expressed in most mammalian tissues. It belongs to the Dj1/ThiJ/PfpI family chaperones, and its expression is induced by oxidative stress (20,21). To determine whether the PfpI domain of Dj1 exerts a similar role as the full-length Dj1 protein (rDj1) in liver cells, truncated Dj1 (tDj1) comprising of only the PfpI domain was purified (FIG. 5O). HFD-fed mice were intravenous injected with rDj1 or tDj1 every other day for 14 days."}, "JNK [1]": {"test_system": "JNK", "experiment": "JNK phosphorylation immunoblot in liver of HFD-fed mice", "format": "in vivo, mouse", "from_the_text": "(§5) As described above, Dj1 administration stimulates AMPK phosphorylation in the liver cells. However, elevated AMPK phosphorylation in vivo was not observed (data not shown). Numerous studies have reported that the c-Jun N terminal kinase (JNK) is critical to the development of steatosis and chronic liver injury in NAFLD (22-25). […] However, not all MAPK pathways were activated. For example, phosphorylation of p42 was not altered by tDj1 treatment (FIG. 6O). Both rDj1 and tDj1 suppressed TNFα and Anisomycin-induced JNK (p54 and p46) phosphorylation in human HepG2 and mouse AML12 liver cells, respectively (FIGS. 6C-6D)."}, "p38": {"test_system": "p38", "experiment": "p38 phosphorylation immunoblot in liver of HFD-fed mice", "format": "in vivo, mouse", "from_the_text": "as §5"}, "JNK [2]": {"test_system": "JNK", "experiment": "Anisomycin-induced JNK phosphorylation in AML12 cells", "format": "cell-based", "conditions": "mouse AML12 liver cells", "from_the_text": "as §5"}, "HFD-fed mice": {"test_system": "HFD-fed mice", "experiment": "rDj1 or tDj1 intravenous every other day for 14 days in HFD-fed mice", "format": "in vivo, mouse", "experimental": "C57BL/10cSn-Dmd^mdx/J (001801, mdx) and C57BL/10ScSnJ (000476, WT) mice were ordered directly from The Jackson Laboratory. Different ages of mdx and WT mice were obtained. Animals were weaned 21 days after birth and had free access to food and water and were housed on 12 h light-dark cycle. C57BL/6J males were introduced to a normal diet (NC, Research Diets D15100601) or high-fat diet (HFD, Research Diets D12331), and maintained on a diet for the indicated time. The HFD diet derives 58% of its kilocalories (kcal) from fat (soybean and coconut oil), 25.5% from carbohydrates (sucrose and maltodextrin), and 16.4% from protein (casein). NASH model mice were fed for up to 28 weeks with the NASH diet (Envigo, TD.120528) and 42% fructose (Sigma, F0127) in the water (1,2). The NASH diet is composed of 405.36 g/Kg sucrose and 12.5 g/Kg cholesterol. Recombinant mouse Dj1 protein (Novus, NBP2-59523) or truncated mouse Dj1 (tDj1, GenScript) protein was intravenously injected every day for 5 days or every other day for 2 weeks. Skeletal muscle-specific Park7 knockout mice were generated by crossing Park7 flox mice with Myl1-cre mice (JAX, #024713). Mice were raised in microisolator cages with a 12 h: 12 h light: dark cycle. All procedures were performed in accordance with the Guide for Care and Use of Laboratory Animals of the National Institutes of Health, and were approved by the Animal Subjects Committee of the University of California, Los Angeles.\nCryosections (10-μm thick transverse sections of frozen muscle cut in a cryostat (Leica) at −20° C.) were subjected to hematoxylin & eosin (H&E) staining (10, 54). Liver tissues were fixed in phosphate-buffered 10% formalin and embedded in paraffin wax. Sections were cut and stained with H&E.\nas §2\nPlasma and liver NEFA, Cholesterol, and Triglyceride were analyzed by their respective kits (FUJIFILM Wako Diagnostics)\nAbout 80 mg of liver samples were homogenized and sonicated in PBS (pH 7.4) for lipid extraction. An internal standard mixture (ISTD) and CHCl3:methanol (2:1) were added to the samples before being vortexed, mixed, sonicated, and centrifuged. The supernatant containing the lipid was removed and dried, the lipids were resuspended in ethanol and then sonicated.\nas §4"}, "ASK1": {"test_system": "ASK1", "experiment": "ASK1 phosphorylation immunoblot, in vitro and in liver of HFD-fed mice", "design": "species or system mouse", "conditions": "in vitro and in vivo; liver of HFD-fed WT mice", "from_the_text": "A wide variety of mechanisms activate the JNK pathway. […] Moreover, ASK1 is activated by various stresses, including oxidative stress, ER stress, calcium overload, and receptor-mediated inflammatory signals such as TNFα and lipopolysaccharide (LPS) (26,27). rDj1 administration suppressed both baseline and TNFα-induced ROS levels in HepG2 cells, which may contribute to reducing liver inflammation (FIG. 6F)."}, "p42": {"test_system": "p42", "experiment": "p42 phosphorylation immunoblot in liver of HFD-fed mice", "format": "in vivo, mouse", "from_the_text": "as §5"}}, "note": "“Also recorded” adds a separate entry of the source. Where two headings read alike, the source gives them in different places."}
{"molecule": "O=C(/C=C/c1ccc(/C=C/C(=O)Nc2ccc(C3=NCCN3)cc2)cc1)Nc1ccc(C2=NCCN2)cc1", "note": "[GW4869]", "values": [{"measurement": "protein level of Dj1 in the media", "setting": "C2C12 myotubes", "result": "significantly reduced"}]}
{"molecule": "C/C=C(/C)C(=O)O[C@H]1C(C)=C2[C@H]([C@@H]1OC(=O)CCCCCCC)[C@@](C)(OC(C)=O)C[C@H](OC(=O)CCC)[C@@]1(O)[C@H]2OC(=O)[C@@]1(C)O", "note": "[Thapsigargin]", "values": [{"measurement": "muscle cell release of Dj1", "setting": "C2C12 myotubes", "result": "release Dj1"}, {"measurement": "budding of vesicles from cells", "setting": "C2C12 myocytes; Dj1-GFP transfected C2C12 myocytes, time-lapse imaging", "result": "Robust budding of vesicles"}]}
{"molecule": "carbonyl cyanide m-chlorophenyl hydrazine [CCCP]", "values": [{"measurement": "Dj1 levels in the culture medium", "setting": "C2C12 myotubes; C2C12 myocytes / myotubes", "result": "elevated"}, {"measurement": "HA-Dj1 levels in the media", "setting": "C2C12 myotubes; C2C12 myocytes transfected with HA-tagged Dj1", "result": "elevated"}, {"measurement": "muscle cell release of Dj1", "setting": "C2C12 myotubes", "result": "release Dj1"}, {"measurement": "protein level of cleaved caspase 3", "setting": "cleaved caspase 3", "result": "did not alter"}, {"measurement": "budding of vesicles from cells", "setting": "C2C12 myocytes", "result": "Robust budding of vesicles"}]}
{"molecule": "Cardiotoxin [CTX]", "values": [{"measurement": "Dj1 in the plasma", "setting": "C57BL/6J mice", "result": "increase"}]}
{"molecule": "COC(=O)c1ccccc1NC(=O)c1ccc(F)cc1", "note": "[Exo1]", "values": [{"measurement": "protein level of Dj1 in the media", "setting": "C2C12 myotubes", "result": "significantly reduced"}]}
{"molecule": "B1", "values": [{"measurement": "TG levels in the liver", "setting": "NASH diet-fed mice; NASH diet-fed mice", "result": "did not considerably reduce"}, {"measurement": "fibrosis scores", "setting": "NASH diet-fed mice; NASH diet-fed mice", "result": "significantly reduced"}, {"measurement": "hepatic apoptosis (TUNEL assay)", "setting": "NASH diet-fed mice; NASH diet-fed mice", "result": "suppressed"}, {"measurement": "liver ALT activity", "setting": "NASH diet-fed mice; NASH diet-fed mice", "result": "robustly reduced"}, {"measurement": "total cholesterol level in the liver", "setting": "NASH diet-fed mice; NASH diet-fed mice", "result": "significantly suppressed"}, {"measurement": "inflammatory gene expression", "setting": "NASH diet-fed mice; liver of NASH diet-fed mice", "result": "significantly reduced"}, {"measurement": "liver fibrosis gene expression", "setting": "NASH diet-fed mice; liver of NASH diet-fed mice", "result": "significantly reduced"}, {"measurement": "protein levels of apoptosis markers (cleaved caspase 3, cleaved caspase 8, cleaved caspase 9, cleaved PARP)", "setting": "NASH diet-fed mice; liver of NASH diet-fed mice", "result": "decreased"}, {"measurement": "body weight", "setting": "NASH diet-fed mice; mice on NASH diet for 28 weeks", "result": "significantly reduced"}, {"measurement": "glucose tolerance", "setting": "NASH diet-fed mice; mice on NASH diet for 28 weeks", "result": "improved"}, {"measurement": "insulin tolerance", "setting": "NASH diet-fed mice; mice on NASH diet for 28 weeks", "result": "improved"}, {"measurement": "TG levels", "setting": "AML12 cells", "result": "reduced"}, {"measurement": "JNK (p46 subunit) phosphorylation", "setting": "JNK [1]", "result": "significantly reduced"}, {"measurement": "p38 phosphorylation", "setting": "p38", "result": "decreased"}, {"measurement": "Anisomycin-induced JNK (p54 and p46) phosphorylation", "setting": "JNK [2]", "result": "suppressed; also recorded: inhibits"}, {"measurement": "level of TG in the liver", "setting": "HFD-fed mice", "result": "significantly reduced"}, {"measurement": "liver histology, lipid accumulation", "setting": "HFD-fed mice", "result": "less lipid accumulation"}, {"measurement": "plasma ALT levels", "setting": "HFD-fed mice", "result": "reducing"}, {"measurement": "plasma AST levels", "setting": "HFD-fed mice", "result": "reducing"}, {"measurement": "phosphorylation of apoptosis signal-regulating kinase 1 (ASK1)", "setting": "ASK1", "result": "reduced; also recorded: inhibits"}, {"measurement": "phosphorylation of p42", "setting": "p42", "result": "not altered"}]}
